Results taken from patent US20170362276A1 (published 2017).
Positions of bridges follow the written chain, without caps; N, C: chain ends. Non-standard residues stand in square brackets, D forms with d. No end group written: not given here.

B1: endomorphin-2 (Tyr-Pro-Phe-Phe-NH2) (peptide)
peptide: YPFF-NH2
B2: Compound 2, Tyr-c[D-Glu-Phe-Phe-Lys]-NH2 (peptide)
peptide: Y[dE]FFK-NH2
modifications: lactam 2-5; N-terminus assumed
SMILES: NC(=O)[C@@H]1CCCCNC(=O)CC[C@@H](NC(=O)[C@@H](N)Cc2ccc(O)cc2)C(=O)N[C@@H](Cc2ccccc2)C(=O)N[C@@H](Cc2ccccc2)C(=O)N1
B3: Compound 1, Tyr-c[D-Lys-Trp-Phe-Glu]-NH2 (peptide)
peptide: Y[dK]WFE-NH2
modifications: lactam 2-5; N-terminus assumed
SMILES: NC(=O)[C@@H]1CCC(=O)NCCCC[C@@H](NC(=O)[C@@H](N)Cc2ccc(O)cc2)C(=O)N[C@@H](Cc2c[nH]c3ccccc23)C(=O)N[C@@H](Cc2ccccc2)C(=O)N1
B4: Compound 5, Tyr-c[D-Lys-Trp-Phe-Asp]-NH2 (peptide)
peptide: Y[dK]WFD-NH2
modifications: lactam 2-5; N-terminus assumed
SMILES: NC(=O)[C@@H]1CC(=O)NCCCC[C@@H](NC(=O)[C@@H](N)Cc2ccc(O)cc2)C(=O)N[C@@H](Cc2c[nH]c3ccccc23)C(=O)N[C@@H](Cc2ccccc2)C(=O)N1

What was measured:
[1] = molecular target: human kappa opioid receptor (human) (UniProt P41145); test: radioligand competition, 3H-U69593, membranes of CHO cells expressing cloned human kappa receptor
[2] = molecular target: human mu opioid receptor (human) (UniProt P35372); test: cell-based or functional assay
[3] = molecular target: human kappa opioid receptor (human) (UniProt P41145); test: cell-based or functional assay
[4] = molecular target: human mu opioid receptor (human) (UniProt P35372); test: radioligand competition, 3H-DAMGO, membranes of CHO cells expressing cloned human mu receptor
[5] = molecular target: T1, human delta opioid receptor (human, UniProt P41143 1-372); test: cell-based or functional assay
[6] = molecular target: T1, human delta opioid receptor; test: radioligand competition, 3H-DPDPE, membranes of CHO cells expressing cloned human delta receptor
[7] = molecular target: T1, human delta opioid receptor; test: ratio of Ki at delta to Ki at mu, radioligand competition
[8] = molecular target: human kappa opioid receptor (human) (UniProt P41145); test: ratio of Ki at kappa to Ki at mu, radioligand competition

Molecule | Ki [1] [nM] | Agonist EC50 (35S-GTPγS assay) [2] [nM] | efficacy of mu activation (35S-GTPγS) [2] [%] | Agonist EC50 (35S-GTPγS assay) [3] [nM] | Selectivity kappa/mu (agonist EC50) [3] | Ki [4] [nM] | Agonist EC50 (35S-GTPγS assay) [5] [nM] | Selectivity delta/mu (agonist EC50) [5] | Ki [6] [nM] | Selectivity Delta/Mu [7] | Selectivity Kappa/Mu [8] | Delta Antagonist IC 50 [5] [nM]
ck1, Tyr-c[D-Lys-Trp-Phe] (peptide) | 35 | 0.21 | > 90 | 470 | 2240 | 0.32 | 138 | 658 | 28 | 90 | 111 | –
ck2, Tyr-c[D-Lys-Phe-Phe] (peptide) | 12 | 0.15 | > 90 | 206 | 1370 | 0.36 | 7 | 44 | 3 | 9 | 33 | –
B1 | – | – | – | – | – | – | – | – | – | – | – | 30000
B2 | – | – | – | – | – | – | – | – | – | – | – | 2750
B3 | – | – | – | – | – | – | – | – | – | – | – | 105
B4 | – | – | – | – | – | – | – | – | – | – | – | 557
